In the experiment the target is taxol stabilized microtubules assembled from MAP-free tubulin from bovine brain (bovine) (UniProt Q6B856). As to the kind of experiment: co-sedimentation; 1.5 μM GFP-tagged TPPP/p25 with increasing concentrations of taxol stabilized MTs, 15 min at 37 °C, centrifugation; GFP fluorescence of pellets and supernatants; apparent Kd (likely a composite of MT binding and TPPP/p25 dimerization or oligomerization).

From paper PMC4542545 come the findings set out here.

“GFP-tagged TPPP/p25 ΔC(158) (from UniProt O94811 1-157) (domain or fragment)”: the Kd worked out at 1750 nM.
Turning to “GFP-tagged full-length TPPP/p25 (from UniProt O94811 1-219) (natural protein)”, the Kd is 1440 nM.
With “GFP-tagged TPPP/p25 ΔN(49) (from UniProt O94811 50-219) (domain or fragment)”, the Kd amounted to 860 nM.
